Laboratory results from a protein production outcome set (Wang et al. 2014).

Assay: label from the status in PepcDB records

SLKKVITVNEWYTTTVAATMLGRRPTDEDAILVSAPATSRPNVRIKAVFDGHAGEATSQYCAKHAAKHLGKLSEFTFAEVKKACLSLDAEIIRKLGPKHVAGSTGIIVAIERLSAPVVENVVGREIVPRAHEETFVPLEKLIQEEEEAEHPELVGRYPRVPDVQQKTIPAGSFLVTAINIGDSRATLIHSDGGLTRLSKDHKPNHPTEASRIEKAGGSVETFDVPRVDGVLALSRAFGDSDFKMNPNLPPEEQKVIAVPDVRQFYALSSDLLLLACDGVYEPSGMDWAYVRDLTVAEMQRSKGDLEEVAARVMDYAYDMNSQDNISVMLVAFHNQEVEHPTAVYKVVSGQVDKVEWDVAGKKGN
protein production: not failed

MDRTEQKSIIEGLLFVSGDEGIYPEQIAKVLEIEGNEVIDILEEMQKECEGAHRGLQIVQYAKVYRFATKKEHASYYQKLIEIPTAASLSQAALETLAIVAYRQPITRTEMEEIRGVKTDKALQTLVSHLLIKEMGRAEGPGRPILYGTTKEFLDTFGLKTLDDLPPLSEENEQMNEADLFFGSLQEISK
protein production: failed

MQNTPVILFDLDGTLIDSTEAVYEGFCVAFEKNGGAIPSQGKVVELIGHTLEDMFLRLGVPEVNITQHVLDYKAHYRIISKPKTNLLPKAREAILEASKFATLGVVTTKTGRFSRELLEYFEVLHFFKSIVGREDVTNAKPHPEPIFKALSEIGIKEVSAWMVGDTPLDLLAAQEAGIKSVAVLSGYAEEEMLRKYTLNVSKD
protein production: failed

MSDIHKKIKKKQFAPLYLLYGTEAFFINETIKLITTEALEEEDREFNVVTYDLEEAYLEDVVEDARTLPFFGERKVLLIKSPLFLTSQKEKLEQNIKILEEYIGEPSPFSILVFVAPYEKLDERKKITKLLKKTADIVEANAMQVQDVQKWIVARAEEGHVHIDNAAVSLLLELVGSNVTMLAKEMDKLTLYVGMGGEITPKLVAELVPKSVEQNVFALTEKVVKKDIAGAMQILDGLFTQQEEPIKLLALLVSQFRLLHQVKELQQRGYGQNQIASHIGVHPYRVKLAMNQTKFFSFEELKKVIIELAEADYSMKTGKMDKKLVLEFFLMRLNHM
protein production: failed

MSDLKSLATKFASDHESGKLLVLPTVWDTWSAGLVEEAGFSGLTIGSHPVADATGSSDGENMNFADYMAVVKKITSAVSIPVSVDVESGYGLSPADLIAQILEAGAVGINVEDVVHSEGKRVREAQEHADYIAAARQAADVAGVDVVINGRTDAVKLGADVFEDPMVEAIKRIKLMEQAGARSVYPVGLSTAEQVERLVDAVSVPVNITAHPVDGHGAGDLATLAGLGVRRVTFGPLWQKWLAATSAQQLKGWA
protein production: not failed

MCKHILGKGYVDGVIEADEVFFTESFKGTKPSNMPRRSRKIGKQVKKSGISKEQVCITTAIDRQGNLIMELACKGRITSKELEKLYDGHISNESILCTDSRKSYIQFANDLSLEHKRIKRGKHKEGLYHIQHINVLHSNLRKWMNRFNGAATKYISNYIKWFKWLQIFDTHKEIIKAKNFIVQSNVAHAYIKVKDLKYREPICV
protein production: failed

KGESYKGKVAVASVVLNRTEKKGFPDTIRGVIYQKNAFEPVANGSINQKPDKESIEAAEEALSSKNRETDAIFFYNPKTASDNWIRSRKIVEKIGRHVFAV
protein production: not failed

MIAQQFNRARHILRHNLVRPFYQPKFYLESGKLAGFEALLRWYDEDNQIQLPKLIINAFEDYSLASRLSEKMQLNIFKDMASWINQGLQLVPVSINAAPVEFLKDNYAELLLERLNQFEIPYHLIEIEITEHLLDDQGKNFISRALAKLKQNGIRIALDDFGTGHSSLTRLANLPVDCLKIDCDFVQRMEQEKFISALVQSVILMSNNLGIDVVAEGIESQEQLELLKQQGCEVGQGFLFSQALAPENARALLS
protein production: failed

MAGFSSLIPRTLLKRAVSSATRNLTAPLASISAARNLFIGGGCDENYGEPGVFSHSNGIRKYNTVGNAGALTGPFHHLLGVNQTNKPAFLRVQSMSYQFVADSHSSPKRIVKNEDEEDFSDSSKKGNAENPRKHQIGENIPKKDKIKFLVNTLLDIEDNKEAVYGALDAWVAWERNFPIASLKIVIASLEKEHQWHRMVQVIKWILSKGQGNTMGTYGQLIRALDMDRRAEEAHVIWRKKVGNDLHSVPWQLCLQMMRIYFRNNMLQELVKLFKDLESYDRKPPDKHIVQTVADAYELLGMLDEKERVVTKYSHLLLGTPSDDKPSRSSRKKKKPELRIPEATTEGAVDAAKAEIQEERKENLDNHQESEAATEKQFEHGA
protein production: failed

MIERILASLILCLMLGIPFGMMFSFTGDVVLNFTFFWPLFMSGLWITGGLYFWFHYERHWRWGDGVIPDEPTGRPLVSILIPCYNEGPNVRETIEAALAQRYTHIEVIAVNDGSNDDTGDELNRLAEQYDKLRVIHLAHNQGKALALQAACAAAKSDLLVCIDGDALLDPDAVAYLINPLINNPRVGAVTGNPRIRTRSTLIGRIQVGEFSSIIGLIKRTQRVHGKVFTVSGVIAAFRRSALAEVGYWSPDMITEDIDISWKLQLRHWTIFFEPRALCWILMPEKLSGLWKQRLRWAQGGAEVFLKNFRHLWSWRYRRMWPLFLEYSISILWAFTYAVSVLLYLLGFLIELPEEIRVETLFPPAFTGMMIGVVCLIQFAVSMLIERRYEKDIGKYLFWVIWYPMVYWTLSLFTSLVSFPKVMLRSRKKRARWESPDRGIERG
protein production: failed

MSNSKWWFLLVCFIPAITFASEGGEHSDPVTSVLLGVTTILFLAIIGRYLARLLNQPGVLGELLIGMIVGNLSYFFGSELVVILREGSAIYDVVKEMLAGISLNQAVTHVIHNSYYANQVIHALSGAEGTEYLKIAYVVDIFSRYGVIFLLFMVGLETSLSDLKKTGKESILVAVIGIVAPMILGFVVACFIIPNSNYKINLFIGATLSATSIGITASVLKEMNKLSTREARTILGAATLDDILGLIILAVVSSIVISGAVSIMVVMKIIILALLFFIGTLFMGPFVLRKAVDLFRFLEPWESKLFISFLFIMALAWLASFIQLAAIIGAFAAGVILHDDYFGEQKAHHKDHRSIHHLVSPLETILAPMFFTLIGIQVKLETFYDWNVIVLAGGLSVAAILGKLLSGLGANRRDDRLLIGIGMLPRGEVGLVFASIGRTIGVISDNLFTAIVLMIMITTFIAPPLLKMRYAKPKEDRNA
protein production: failed

SDSLETTQQDYPDCFFQHVKVNVKNPYDLTRQVCSSMDQWLTERLDSEPLSLAILVDSATSILYLSNQSNSFSLLFHYLRVMGRKLSPTLYCVCQLIHFDMGYGDELLKEAKFYDSLILQLDALPLGVPSEQDGRLSIEERDQAISTVLFKILENQIKFFTI
protein production: failed

MEKQEEEDVKRRQRQKAATSLGFLHWEELKNHGDLSKVALNIALTTLVDDASTGFCIMNLVNLIVLRESSQGYLLTYEGKLASLASATYVKAFISLWVLEDAERHAWSFRTFSLTFPLDDPILDTFLELTGVTEAGEFVYAPTTLQSPFHALYFDPQRNSFRRVIYEGLADDEFRRRNRLGYERHHILPNHIESLISL
protein production: failed

MRRTNTFAVRPLSDDDERLLLDLLDASASLWNELNYERRQQFFDGESVWDTADYRKQYVGVLGSATAQQVIRKNKSAWQSFFAARENGEDTAPPGYWGNEDDGRELRTFIRHDLYTLDTGERSRVEIPVGQDLKDEYGLGYHDRLRLEVAGDPKWDGEQGRLEIQYGETDDTFRAFQPVTVPDSRQDSPLASHEAALDVGANNLVACTTTTGEQYLYEGRGLFAHFRETTREIARLQSKLREGRYSSQRIRRLYRKRTRRRDHAQDALVRDLMERLYAEGVDTVYVGDLTDVLSTHWCAEVNAKTHQFWAFRAFIERLSHTAEEYGITVEVRSEADTTRTCPACGEQDDTDRDGDVFRCPCGHEAHADLCASRTFLERQTGKPVGSMARPVRLKWDDHNWSEIPHSPERARPNEKRTNQSTDSQDGKLASVGTA
protein production: failed

MGLPNLSRFREKCCYCYRSIGDGISVCDCGFSFCEKHRGIHLGKSGCRIVFDIKEVGSDLGIEIKNAMLGEEEVEELRRRMEILIKPGDEDERVLSRDEEVRCVHGCPEGPSSIEMGNIGGLKCNLCDVKTRLWVCFSCGYVGCGRMQYGAEGNGHAKSHYEETQHNVFVLVPSLLKEDCEIFCYLCDSNIRSRYNSAENSVTIDFGGADGKTEERSVRKVMSCRGIAEPEFLEKKRAPESKGESVPSPYVGIINSGNTCYISSVIHMVGYAVSKEEFDLEQHFEICYMKNPLECFFCQLMRVLSKMKETKDNEGVNRISILDLIMLIWRDMPMFGKFAQQDAHEFLLFLLEKIREGERSYLIPPITSLFEFEVGRRVSCSGCMDDSTSYESMLMICTFLKGNIRKSVEMFFLPDEWSCECGGKKKVSRFITTLPKYLIIQVGRYSYNNYKVEKIKDKIEMRSIKLGSFMSKDEADRSLVRKLVDSGYPEEDAAKALGIFWNDESKARSLLENHAMMDMRTDSKYRVVGCINHSGDNIKAGHYTWWVYDNGKCFKIDDTTVLNSNVEVLEDGYIFLFK
protein production: failed

MSQHLFTAFILTALAGLSTGIGSLIAFVTKHTNKTFLSVSLGFSAGVMIYVSMIEIFPTAQTILTKAMDKKSGSWLTVLAFFGGILLIAIIDKLIPSEENPHEIKTIEEEDQKPTKLMRMGLMTAIAIGIHNFPEGLATFISGLQDASIAIPIVIAIAIHNIPEGIAVSVPIYQATGSKKKAFTYSFLSGLAEPLGAIIGWFLLMPIMNNIVYGAIFSAVAGIMVFISLDELLPAAEEYGKHHLAIYGVISGMLIMAVSLLLFI
protein production: failed

MSLVSVIILASGNSQRMGQNKLFLKYQGKTFLEHTLTLVNQLDVLERILVVSPENQPAFPLPKNIQLILNHQWQEGQSSSIRLGTEQARGAGYLYLPSDQPLLTPKMLQLVLDKCQRNKIVVPLQKDGCPSSPVLFGNQFRQELLTLTGEKGGRMIYERFPEAVQMLRIATPGRLKDIDTPEEYQKLIQETNSLEHHHHHH
protein production: failed

MNKMIILLVIAIIFLHMCLIWLWYRYTNNPSVVDVGWASGLTLAGLIYLNNQEFSLRSLLLVLALLTWGIRLGGYLWWTRIRLKKIDKRYLALSNDWKLAKPLGFFLNFQLQGVLICLVSIPWYFSSSETQTALNLLDGLALIIFLTALILETVADNQLQDFKKNYPGKVCNQKLWRYCRHPNYFYEWLVWCSFTLFALSAPYGWIAIISPLTLYLIMTKITAPMTEQGSIESRGNLYIEYQKVTPMFFPKWLKNNSTPRK
protein production: failed

MTANAYVRARIDQTLKDDATAVLDRLGLTVSDVMRMMLTRIAREKALPIELTQPNAETLAAIEEARAIAAAGRNRFGTSEALFEALDAGKRLEHHHHHH
protein production: not failed

ADSPVLMVYGLDQSKMNCDRVFNVFCLYGNVEKVKFMKSKPGAAMVEMADGYAVDRAITHLNNNFMFGQKMNVCVSKQPAIMPGQSYGLEDGSCSYKDFSESRNNRFSTPEQAAKNRIQHPSNVLHFFNAPLEVTEENFFEICDELGVKRPTSVKVFSGKSERSSSGLLEWDSKSDALETLGFLNHYQMKNPNGPYPYTLKLCFSTAQHAS
protein production: not failed

MKRKIIVACGGAVATSTMAAEEIKELCQSHNIPVELIQCRVNEIETYMDGVHLICTTARVDRSFGDIPLVHGMPFVSGVGIEALQNKILTILQG
protein production: not failed

MAQLPASMRRKRAAITSIHEKPPSRKQKLVNAGGWILLCIAFVVLAAGVYGLYKVITDAKIADLSIVGTRSVVEQNQLQQHIQPIIKDNYFTSDLEQIRDKALEISWVDRVVVSRAWPNSIRVRIMPRHAIARWGTGRLLSDSGDVYAEAELKNHPNLPMLHGPITQSKAMMRRYNEINQLFQPVNLRLTELYLTERMTWFMQFDSGLRVIVDQDQTMSKLQRLSHLAQTDLKPVWSKISAIDLRYRNGLSLQWKTGVPPKILNGQFVVTSDDTNVASGMTAKP
protein production: failed
